{"source": "patent US20230277689", "proteins": {"B1": {"name": "plasma purified human CFI (Comptech) (protein)", "chain": "KVTYTSQEDLVEKKCLAKKYTHLSCDKVFCQPWQRCIEGTCVCKLPYQCPKNGTAVCATNRRSFPTYCQQKSLECLHPGTKFLNNGTCTAEGKFSVSLKHGNTDSEGIVEVKLVDQDKTMFICKSSWSMREANVACLDLGFQQGADTQRRFKLSDLSINSTECLHVHCRGLETSLAECTFTKRRTMGYQDFADVVCYTQKADSPMDDFFQCVNGKYISQMKACDGINDCGDQSDELCCKACQGKGFHCKSGVCIPSQYQCNGEVDCITGEDEVGCAGFASVTQEETEILTADMDAERRRIKSLLPKLSCGVKNRMHIRRKRIVGGKRAQLGDLPWQVAIKDASGITCGGIYIGGCWILTAAHCLRASKTHRYQIWTTVVDWIHPDLKRIVIEYVDRIIFHENYNAGTYQNDIALIEMKKDGNKKDCELPRSIPACVPWSPYLFQPNDTCIVSGWGREKDNERVFSLQWGEVKLISNCSKFYGNRFYEKEMECAGTYDGSIDACKGDSGGPLVCMDANNVTYVWGVVSWGENCGKPEFPGVYTKVANYFDWISYHVGRPFISQYNV"}, "B2": {"name": "human Complement Factor I expressed from pAAV.CFI / AAV.CFI (cDNA of SEQ ID NO: 2, Genbank NM_000204.4) (protein)", "chain": "B1 chain with T282A"}, "B3": {"name": "human Complement Factor I expressed from pAAV.CFIco / AAV.CFIco (codon-optimised cDNA of SEQ ID NO: 8) (protein)", "chain": "B1 chain"}}, "target": "plasma purified C3b (Comptech), P01024", "sequence (P01024 whole entry, looked up)": "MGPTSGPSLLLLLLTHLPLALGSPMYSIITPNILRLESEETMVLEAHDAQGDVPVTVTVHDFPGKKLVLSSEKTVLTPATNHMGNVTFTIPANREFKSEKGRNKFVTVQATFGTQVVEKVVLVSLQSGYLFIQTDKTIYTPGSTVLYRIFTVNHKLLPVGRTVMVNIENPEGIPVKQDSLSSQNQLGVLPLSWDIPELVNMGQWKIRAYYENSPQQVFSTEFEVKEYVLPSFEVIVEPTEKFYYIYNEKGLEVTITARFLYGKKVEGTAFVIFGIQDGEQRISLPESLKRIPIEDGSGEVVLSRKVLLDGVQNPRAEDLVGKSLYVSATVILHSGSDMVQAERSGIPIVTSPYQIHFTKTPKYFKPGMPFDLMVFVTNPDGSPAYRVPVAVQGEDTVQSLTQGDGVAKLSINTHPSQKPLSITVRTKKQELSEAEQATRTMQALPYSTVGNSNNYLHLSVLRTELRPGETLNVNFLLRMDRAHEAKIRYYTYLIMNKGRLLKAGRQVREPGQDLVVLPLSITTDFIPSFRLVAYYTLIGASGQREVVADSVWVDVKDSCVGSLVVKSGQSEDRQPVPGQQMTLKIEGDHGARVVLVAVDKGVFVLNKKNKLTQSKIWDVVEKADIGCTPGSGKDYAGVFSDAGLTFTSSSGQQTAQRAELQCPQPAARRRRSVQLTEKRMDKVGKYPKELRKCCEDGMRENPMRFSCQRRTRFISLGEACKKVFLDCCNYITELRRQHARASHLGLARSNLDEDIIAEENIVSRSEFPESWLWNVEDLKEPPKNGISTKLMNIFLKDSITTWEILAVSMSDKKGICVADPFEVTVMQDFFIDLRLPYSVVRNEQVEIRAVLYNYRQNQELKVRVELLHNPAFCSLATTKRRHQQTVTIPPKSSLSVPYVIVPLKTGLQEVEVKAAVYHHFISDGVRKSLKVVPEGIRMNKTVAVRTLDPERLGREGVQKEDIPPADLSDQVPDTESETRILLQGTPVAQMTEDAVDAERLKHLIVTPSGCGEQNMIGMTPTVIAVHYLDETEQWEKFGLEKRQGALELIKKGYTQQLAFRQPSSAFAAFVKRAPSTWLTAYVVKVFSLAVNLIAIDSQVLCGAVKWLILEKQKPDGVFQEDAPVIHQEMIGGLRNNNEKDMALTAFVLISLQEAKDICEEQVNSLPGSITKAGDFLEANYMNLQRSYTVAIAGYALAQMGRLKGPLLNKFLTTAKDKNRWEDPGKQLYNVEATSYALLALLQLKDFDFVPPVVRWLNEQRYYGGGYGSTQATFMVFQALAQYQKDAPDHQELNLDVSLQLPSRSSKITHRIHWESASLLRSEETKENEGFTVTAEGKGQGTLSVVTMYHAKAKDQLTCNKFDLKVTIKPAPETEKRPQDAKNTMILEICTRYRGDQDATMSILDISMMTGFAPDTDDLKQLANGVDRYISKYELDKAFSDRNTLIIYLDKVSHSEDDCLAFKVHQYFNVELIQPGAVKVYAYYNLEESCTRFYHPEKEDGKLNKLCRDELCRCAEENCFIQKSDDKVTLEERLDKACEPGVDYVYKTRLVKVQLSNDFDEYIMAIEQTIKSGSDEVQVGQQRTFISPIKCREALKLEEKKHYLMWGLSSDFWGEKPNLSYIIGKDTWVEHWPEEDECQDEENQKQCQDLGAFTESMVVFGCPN", "note": "Positions count from the first letter of the chain named."}
{"protein": "B1", "values": [{"measurement": "C3b cleavage assay (with CFH as co-factor; immunoblot with clone 9)", "result": "C3b is degraded by CFIpl to iC3b and C3dg"}]}
{"protein": "B2", "values": [{"measurement": "C3b cleavage assay (with CFH as co-factor; immunoblot with clone 9)", "result": "CFI secreted from transduced cell lines is functionally active and cleaves the α-chain of C3b to iC3b"}]}
{"protein": "B3", "values": [{"measurement": "C3b cleavage assay (with CFH as co-factor; immunoblot with clone 9)", "result": "CFI secreted from transduced cell lines is functionally active and cleaves the α-chain of C3b to iC3b"}]}
